Data taken from PMC12502762.

Target: PA domain 3 (Bacillus anthracis)
Assay: ELISA

Chain of PA domain 3 (Bacillus anthracis) (P13423 517-624 limits assumed): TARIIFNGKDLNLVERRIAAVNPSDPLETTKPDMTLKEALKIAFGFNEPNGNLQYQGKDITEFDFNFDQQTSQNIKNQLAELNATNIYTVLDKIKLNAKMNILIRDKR

B1: antibody 8A7 (antibody, V domains shown)
VH: EVQLLESGGGLVQPGGSLRLSCAASGFSFSSYAMSWVRQAPGTGLEWVSGISGSGDNIYYADSVKGRFTISRDNSKNTVYMQMNSLRAEDTALYYCAKFSGHYGSGSFHLPEYFQHWGQGTLVTVSS
VL: DIQMTQSPATLSASIGDRVTITCRASQSISSWLAWYQQKPGKAPKVLIYKASRLESGVPSRFSGSGSGTEFTLTISSLQPDDFATYYCQQYNTYWTFGQGTKVEIIR
EC50: 0.06 nM
